This data set is described as follows: yeast display, Sf9 membrane polyspecificity reagent, FACS + sequencing; frameworks hold sequencing errors. The essentials:
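Galactose-induced (36–48 hours) yeast carrying a synthetic nanobody display library were exposed to 10% biotinylated, detergent-solubilized Sf9 membrane reagent at 4 °C for 1 hour. FACS followed streptavidin microbead enrichment, using low and high (top ~1%) gates for expression (anti-HA) and reagent binding (streptavidin). Colony PCR, MiSeq 2 × 250 sequencing and CDR-length filtering followed. Labels for polyreactivity reflect the gate of origin.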
“QVQLVESGGGLVQAGGSLRLSCAASGSIFAWYGMGWYRQAPGKERELVAAISTAGSTNYADSVKGRFTISRDNAKNSVYLQMNSLKPEDTAVYYCAKKSSWYYPERFDYWGQGTQVTVSS”: the “polyreactivity (PSR sort gate)” value is “low polyreactivity”.

On to “QVQLVESGGGLVQAGGSLRLSCAASGSIFAWYGMGWYRQAPGKERELVAAITSTGSTYYADSVKGRFTISRDNAKNTVYLQMNSLKPEDTAVYYCNAYSVYLWRPGDYWGQGTQVTVSS”, for which the “polyreactivity (PSR sort gate)” value is “low polyreactivity”.

As to “QVQLVESGGGLVQAGGSLRLSCAASGSIFAYNAMGRYRPAPGKERELVAAITSDDSTNYADSVKGSFTISRDNAQNTVYLQMNSLKPEDTAVYDCAAYYYYTYIIGYDYCGQGTQVTVSS”, the “polyreactivity (PSR sort gate)” value is listed as “low polyreactivity”.

Regarding “QVQLVESGGGLVQAGGSLRLSCAASGSIFAYNAMGWYRQAPGKEREFVAAISQSGGRTYYADSVKGRFTISRDNAKNTVYLQMNSLKPEDTAVYYCATDGIRLTRHRDYDYWGQGTQVTVSS”, the “polyreactivity (PSR sort gate)” value was “low polyreactivity”.

Take “QVQLVESGGGLVQAGGSLRLSCAASGSIFAYNAMGWYRQAPGKEREFVAVITRSDDSTYADSVKGRFTISRDNAKNTVYLQMNSLKPEDTAVYYCAAEYYETPYASLGYDYWGQGTQVTVSS”: the “polyreactivity (PSR sort gate)” value is “low polyreactivity”.

For “QVQLVESGGGLVQAGGSLRLSCAASGSIFAYNAMGWYRQAPGKERELVAAITDSGGSTFYADSVKGRFTISRDNAKTTVYLQMNSQKPEDTAVYYCATSGDRLVWGQCTQVTVSS”, the “polyreactivity (PSR sort gate)” value is “low polyreactivity”.

In the case of “QVQLVESGGGLVQAGGSLRLSCAASGSIFAYYAMGMYRQEPGKERELVAVIRSGGSTYYADSVKGRFTISRDNAKNTVYLQMNSLKPEDTAVYYCAARSYRPTRGDYWGQGTQVTVSS”, the “polyreactivity (PSR sort gate)” value was “high polyreactivity”.

Turning to “QVQLVESGGGLVQAGGSLRLSCAASGSIFAYYAMGWYRPAPGKERELVAAITVSGGRTNYADSVKGRFTISRDNAKNTVYLQMNSLKPEDTAVYYCAADTYSYWYARYDYWGQGTQVTVSS”, the “polyreactivity (PSR sort gate)” value was “high polyreactivity”.

Turning to “QVQLVESGGGLVQAGGSLRLSCAASGSIFAYYAMGWYRQAPGKEMELVARIRRRSSSTFYADSVKGRFTISRDNAKNTVYLQMNSLKPEDTAVYYCAVRGPGTSTYWYHEYEYWGQGTQVTVSS”, the “polyreactivity (PSR sort gate)” value is listed as “high polyreactivity”.

Turning to “QVQLVESGGGLVQAGGSLRLSCAASGSIFAYYAMGWYRQAPGKERELVAAISRGGGSTYYADSVKGRFTISRDNAKNTVYLQMNSLKPEDTAVYYCAAQYVYWTNRVRQHVTLNDYWGQGTQVTVSS”, the “polyreactivity (PSR sort gate)” value is listed as “high polyreactivity”.

Take “QVQLVESGGGLVQAGGSLRLSCAASGSIFAYYAMGWYRQAPGKERELVAAISWSGGRTYYADSVKGRFTISRDNAKNTVYLEMNSLIPEDTAVYYCTAYFYSFYYPFPYESWGQGTQVTVSS”: the “polyreactivity (PSR sort gate)” value was “low polyreactivity”.

On to “QVQLVESGGGLVQAGGSLRLSCAASGSIFAYYAMGWYRQAPGKERELVAAITSGDSTYYADSVKGRFTISRDNAKNTVYLQMNSLKPEDTAVYYCAADHIWFYFYLYDYWGQGTQVTVSS”, for which the “polyreactivity (PSR sort gate)” value is reported as “high polyreactivity”.

Regarding “QVQLVESGGGLVQAGGSLRLSCAASGSIFAYYTMGWYRQAHGKERELVAAISRSGGSTNYADSVKGRFTISRDNAKNTVYLQMNSLKPEDTAVYYCAVRRYSRRLFGYYYWGQGTQVTVSS”, the “polyreactivity (PSR sort gate)” value is on record as “high polyreactivity”.

With “QVQLVESGGGLVQAGGSLRLSCAASGSIFCYYAMGWYRQAPGKERELVAAINSGVRTYYADSVKGRFTISRDNAKNTVYLQMISLKPEDTAVYYCAARYIFKGLRYGYWGQGTQVTVSS”, the “polyreactivity (PSR sort gate)” value is “high polyreactivity”.

With “QVQLVESGGGLVQAGGSLRLSCAASGSIFDAYMGWYRQAPGKERELVAGITRSGGSTYYADSVKGRFTISRDNAKNTVYLQMNSLKPEDTAVYYCAADYSSDGDYWGQGTQVTVSS”, the “polyreactivity (PSR sort gate)” value was “low polyreactivity”.

Take “QVQLVESGGGLVQAGGSLRLSCAASGSIFDDNAMGWYRQAPGKERELVAAITSTDSTNYADSVKGRFTISRDNAKNTVYLQMNSLKPEDTAVYYCAKDARALWLHSGIYDYWGQGTQVTVSS”: the “polyreactivity (PSR sort gate)” value is “low polyreactivity”.

On to “QVQLVESGGGLVQAGGSLRLSCAASGSIFDDYAMGWYRQAPGKERELVAANSGSGDITYYADSVKGRFTISRDNAKNTFYLQMNSLKPEDTAVYYCAAESVYTFYWGQGTQVTVSS”, for which the “polyreactivity (PSR sort gate)” value is “high polyreactivity”.

Consider “QVQLVESGGGLVQAGGSLRLSCAASGSIFDDYVMGWYRQAPGKERELVAAIRSSGGRTYYADSVKGRFTISRDNAKNTVYLQMISLKPEDTAVYYCNAVTKHRQSVPYAYGYWGQGTQVTVSS”, for which the “polyreactivity (PSR sort gate)” value is recorded as “high polyreactivity”.

As for “QVQLVESGGGLVQAGGSLRLSCAASGSIFDGNAMGWYRQAPGKERELVASITYRGGSTYYADSVKGRFTISRDNAKNTVYLQMNSLQPEDTAVYYCAAVFKYRYDYWGQGTQVTVSS”, the “polyreactivity (PSR sort gate)” value was “low polyreactivity”.

On to “QVQLVESGGGLVQAGGSLRLSCAASGSIFDGYAMGWDRQAPGKEREFVATITVSGGRTYYADSVKGRFTISRDNAKTTVYLQRNSLKPEDTAVYYCAARKVPLIRSSTVRQYYYWGQGTQVTVSS”, for which the “polyreactivity (PSR sort gate)” value is recorded as “high polyreactivity”.

On to “QVQLVESGGGLVQAGGSLRLSCAASGSIFDGYAMGWYRQAPGKEREFVAAITKRTGRTYYADSVKGRFTISRDNAKNTVYLQMNSLKPEDTAVYSCAARKKSLTTLRYGYWGQGTQVTVSS”, for which the “polyreactivity (PSR sort gate)” value is listed as “high polyreactivity”.

On to “QVQLVESGGGLVQAGGSLRLSCAASGSIFDGYAMGWYRQAPGKERELVAAISASGVRTYYADSVKGRFTISRDNAKNTVYLQMNSLKPEDTAVYYCAAAVYYGQSVWYYYWGQGTQVTVSS”, for which the “polyreactivity (PSR sort gate)” value is “high polyreactivity”.

For “QVQLVESGGGLVQAGGSLRLSCAASGSIFDHNAMGWYRQAPGKEREFVAAISSSGGSTYYADSVKGRFTISRDKAKNTVYLQMNSLKPEDTAVYYCAAFPDRYVEHGYWGQGTQVTVSS”, the “polyreactivity (PSR sort gate)” value is recorded as “low polyreactivity”.

For the sequence “QVQLVESGGGLVQAGGSLRLSCAASGSIFDHTKAMGRYRQSPGKERELVAGITRGGSTNYADSVKGRFTISRDNAKNTFYLQMNSLKPEDTAVYYCAKAMPAKFYSEAGYDYWGQGTQVTVSS”, the “polyreactivity (PSR sort gate)” value is recorded as “low polyreactivity”.

Take “QVQLVESGGGLVQAGGSLRLSCAASGSIFDIYAMGWYRQAPGKERELVAAITNGGSTYADSVKGRFTISRDNAKNTVYLQMNSLKPEDTAVYYCAAYVDQYEYNYWGQGTQVTVSS”: the “polyreactivity (PSR sort gate)” value is listed as “low polyreactivity”.

On to “QVQLVESGGGLVQAGGSLRLSCAASGSIFDIYGMGWYRQAPGKESELFASISGGAGSTNYADSVKGRFTISRDNAKNTVYLQMNSLKPEDTAVYYCAAEVYVPDYFQHKFDVEYEYWGQGTQVTVSS”, for which the “polyreactivity (PSR sort gate)” value is “low polyreactivity”.

Turning to “QVQLVESGGGLVQAGGSLRLSCAASGSIFDKNAMGWYRQAPGKERELVAAITSSGGDTYYADSVKGRFTISRDNAKNTVYLQMYSLKPEDTAVYYCAALGGRYRASTYGYWGQGTQVTVSS”, the “polyreactivity (PSR sort gate)” value is “high polyreactivity”.

For the sequence “QVQLVESGGGLVQAGGSLRLSCAASGSIFDLNAMGWYRQAPGKERELVAAISKSGGSTYYADSVKGRFTISRDNAKHTVYLQMNSLKPEDTAVYYCAARYHYPGNWYNYWGQGTQVTVSS”, the “polyreactivity (PSR sort gate)” value is recorded as “low polyreactivity”.

Turning to “QVQLVESGGGLVQAGGSLRLSCAASGSIFDLYAMGWYRQAPGKERELVAAITSTGSTYYADSVKGRFTISRDNAKNTVYLQMNSLKPEDTAVYYCAATRGSSEYYYWGQGTQVTVSS”, the “polyreactivity (PSR sort gate)” value is “low polyreactivity”.

As to “QVQLVESGGGLVQAGGSLRLSCAASGSIFDLYAMGWYRQAPGKERELVASIRYSGGRTYYADSVKGRFTISRDNAKNTVYLQMNSLKPEDTAVYYCNRDGGYTFIMDYWGQGTQVTVSS”, the “polyreactivity (PSR sort gate)” value is recorded as “low polyreactivity”.

Values taken from the nanobody polyreactivity screen of Harvey et al. (2022).
